Results from patent US20190194324A1 (published 2019).
Blank lines part the entries; values can stand above or below the binder they belong to.

Legend:
[1] = target: T1, α-syn-biotin monomer (mouse, UniProt O55042 1-140); assay: cell surface binding (SH-SY5Y)
[2] = target: α-syn-biotin PFF (biotin-labelled α-synuclein pre-formed fibrils) (mouse, UniProt O55042 1-140); assay: cell surface binding (SH-SY5Y)
[3] = target: T1, α-syn-biotin monomer; assay: cell surface binding (SH-SY5Y); LAG3* (no Triton)

- Kd [1]: > 3000 nM
- Kd [2]: 77 nM
B1: LAG3 (protein)
chain: MWEAQFLGLLFLQPLWVAPVKPLQPGAEVPVVWAQEGAPAQLPCSPTIPLQDLSLLRRAGVTWQHQPDSGPPAAAPGHPLAPGPHPAAPSSWGPRPRRYTVLSVGPGGLRSGRLPLQPRVQLDERGRQRGDFSLWLRPARRADAGEYRAAVHLRDRALSCRLRLRLGQASMTASPPGSLRASDWVILNCSFSRPDRPASVHWFRNRGQGRVPVRESPHHHLAESFLFLPQVSPMDSGPWGCILTYRDGFNVSIMYNLTVLGLEPPTPLTVYAGAGSRVGLPCRLPAGVGTRSFLTAKWTPPGGGPDLLVTGDNGDFTLRLEDVSQAQAGTYTCHIHLQEQQLNATVTLAIITVTPKSFGSPGSLGKLLCEVTPVSGQERFVWSSLDTPSQRSFSGPWLEAQEAQLLSQPWQCQLYQGERLLGAAVYFTELSSPGAQRSGRAPGALPAGHLLLFLILGVLSLLLLVTGAFGFHLWRRQWRPRRFSALEQGIHPPQAQSKIEELEQEPEPEPEPEPEPEPEPEPEQL

- Kd [3]: > 3000 nM
B2: LAG3 overexpressed in transfected cells (SH-SY5Y; HEK293FT) (receptor)
chain: LQPGAEVPVVWAQEGAPAQLPCSPTIPLQDLSLLRRAGVTWQHQPDSGPPAAAPGHPLAPGPHPAAPSSWGPRPRRYTVLSVGPGGLRSGRLPLQPRVQLDERGRQRGDFSLWLRPARRADAGEYRAAVHLRDRALSCRLRLRLGQASMTASPPGSLRASDWVILNCSFSRPDRPASVHWFRNRGQGRVPVRESPHHHLAESFLFLPQVSPMDSGPWGCILTYRDGFNVSIMYNLTVLGLEPPTPLTVYAGAGSRVGLPCRLPAGVGTRSFLTAKWTPPGGGPDLLVTGDNGDFTLRLEDVSQAQAGTYTCHIHLQEQQLNATVTLAIITVTPKSFGSPGSLGKLLCEVTPVSGQERFVWSSLDTPSQRSFSGPWLEAQEAQLLSQPWQCQLYQGERLLGAAVYFTELSSPGAQRSGRAPGALPAGHLLLFLILGVLSLLLLVTGAFGFHLWRRQWRPRRFSALEQGIHPPQAQSKIEELEQEPEPEPEPEPEPEPEPEPEQL
